B1: GST-tagged HMG box fragment of Sox2 (33–123 a.a.) (domain or fragment)
chain: not shown
notes: source: E. coli, prepared on glutathione-Sepharose
B2: GST-fused Sox9 region #2 (95–186 a.a.), HMG box domain (domain or fragment, mouse, UniProt Q04887 95-186, looked up)
chain: VNGSSKNKPHVKRPMNAFMVWAQAARRKLADQYPHLHNAELSKTLGKLWRLLNESEKRPFVEEAERLRVQHKKDHPDYKYQPRRRKSVKNGQ
notes: cloned in pGEX-6P-1; also called GST-tagged HMG box fragment of Sox9

Biological target: T1, purified recombinant FLAG-Exp4 protein (human, UniProt Q9C0E2 1-1151)
T1 construct: human exportin 4, full-length cDNA assembled from three clones; also called recombinant Exp4; source: baculovirus system (pFASTBAC), purified recombinant
T1 sequence (Q9C0E2 whole entry): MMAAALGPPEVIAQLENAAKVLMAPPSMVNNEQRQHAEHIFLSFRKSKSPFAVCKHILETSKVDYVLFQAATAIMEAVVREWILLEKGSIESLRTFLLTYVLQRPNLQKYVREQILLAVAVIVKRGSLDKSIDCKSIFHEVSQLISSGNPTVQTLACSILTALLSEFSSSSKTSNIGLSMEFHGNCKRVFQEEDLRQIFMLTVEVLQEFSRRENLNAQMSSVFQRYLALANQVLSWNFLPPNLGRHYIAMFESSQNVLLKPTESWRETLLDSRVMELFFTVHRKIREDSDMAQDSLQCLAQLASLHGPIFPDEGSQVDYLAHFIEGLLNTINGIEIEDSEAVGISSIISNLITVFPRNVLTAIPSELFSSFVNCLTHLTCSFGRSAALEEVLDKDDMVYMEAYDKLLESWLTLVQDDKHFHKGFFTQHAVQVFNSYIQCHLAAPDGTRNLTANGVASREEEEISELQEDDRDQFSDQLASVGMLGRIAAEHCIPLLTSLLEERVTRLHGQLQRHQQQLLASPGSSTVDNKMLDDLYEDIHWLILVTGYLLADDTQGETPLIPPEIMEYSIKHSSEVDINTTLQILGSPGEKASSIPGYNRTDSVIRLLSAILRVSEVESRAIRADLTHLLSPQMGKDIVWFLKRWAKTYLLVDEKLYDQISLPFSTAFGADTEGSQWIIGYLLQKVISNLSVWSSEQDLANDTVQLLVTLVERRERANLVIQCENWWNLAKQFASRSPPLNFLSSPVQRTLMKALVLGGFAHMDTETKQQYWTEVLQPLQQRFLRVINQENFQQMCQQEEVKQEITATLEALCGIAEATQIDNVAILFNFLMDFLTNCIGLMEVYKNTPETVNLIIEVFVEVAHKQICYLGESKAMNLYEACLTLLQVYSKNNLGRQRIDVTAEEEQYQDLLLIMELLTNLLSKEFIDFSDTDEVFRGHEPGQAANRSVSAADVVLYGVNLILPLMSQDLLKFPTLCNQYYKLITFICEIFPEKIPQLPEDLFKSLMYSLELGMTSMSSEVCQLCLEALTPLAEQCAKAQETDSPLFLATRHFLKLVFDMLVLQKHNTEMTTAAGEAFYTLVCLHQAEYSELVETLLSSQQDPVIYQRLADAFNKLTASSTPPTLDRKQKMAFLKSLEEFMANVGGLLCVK
Assay: pull-down; GST-fused HMG box fragments incubated with purified recombinant FLAG-Exp4 and glutathione Sepharose 2 hr at 4°C; Western blot with anti-Exp4; no RanGTP
Settings: both partners purified

| Binder | binding result |
| --- | --- |
| B1 | binds |
| B2 | binds |

Source: publication PMC3185033, “Exportin 4 Interacts with Sox9 through the HMG Box and Inhibits the DNA Binding of Sox9” (PLoS ONE, 2011)
